{"source": "patent US9073982B2", "about": "“Targets for regulation of angiogenesis” (The University of North Carolina at Chapel Hill, priority 2008, dated 2015)", "molecules": {"B1": {"name": "SFRP2: mouse recombinant SFRP2 (US Biologicals), secreted frizzled-related protein 2 (protein)", "chain": "LFLFGQPDFSYKRSNCKPIPANLQLCHGIEYQNMRLPNLLGHETMKEVLEQAGAWIPLVMKQCHPDTKKFLCSLFAPVCLDDLDETIQPCHSLCVQVKDRCAPVMSAFGFPWPDMLECDRFPQDNDLCIPLASSDHLLPATEEAPKVCEACKTKNEDDNDIMETLCKNDFALKIKVKEITYINRDTKIILETKSKTIYKLNGVSERDLKKSVLWLKDSLQCTCEEMNDINAPYLVMGQKQGGELVITSVKRWQKGQREFKRISRSIRKLQC"}}, "key": {"[1]": {"test_system": "Human coronary artery endothelial cells (HCAEC)", "test": "Hypoxia-induced endothelial cell apoptosis assay (caspase 3)", "assay_type": "cell-based", "details": "SFRP2 70 pM and 700 pM, 36 h hypoxia", "experimental": "Human coronary artery endothelial cells (HCAEC) were used for apoptosis assays because apoptosis could not be induced in the MEC cells. HCAECs were grown in 10-cm dishes (Becton Dickinson, Franklin Lakes, N.J.) with endothelial cell basal medium-2 (EGM-2) BulletKit media (Clonetics, San Diego, Calif.) until 80% confluent. Medium was then replaced with optimal medium according to different assays. The hypoxic condition was created by incubating HCAECs in EGM-2 media without BulletKit growth factors at 37° C. in a hypoxia chamber with an atmosphere of 5% CO2/95% N2. The oxygen level in the chamber was controlled to 1.0%. Apoptosis was determined by measuring the activity of cleaved caspase 3 by using a caspase-specific fluorogenic substrate according to the protocol for the Caspase 3 Assay Kit (Sigma). HCAECs were lysed after treatment with concentrations of SFRP2 (70 pM and 700 pM) for 36 h under hypoxia. […] The enzyme-catalyzed release of 7-amino-4-methyl coumarin (AMC) was measured by a fluorescence microplate reader.\nHCAEC were seeded onto a 96 well plate at 2,000 cells/well in EGM-2 with BulletKit growth supplements. […] Apoptosis was determined by measuring the activity of cleaved caspase 3 by using a caspase-specific fluorogenic substrate according to the protocol for the Apo-ONE® Homogeneous Caspase-3/7 Assay (Promega, Madison, Wis.). […]"}, "β-catenin": {"test_system": "β-catenin", "test": "Western blot for nuclear and cytoplasmic β-catenin in endothelial cells", "assay_type": "cell-based, mouse", "details": "SFRP2 700 pM", "experimental": "SFRP2 has been described as both a Wnt antagonist and agonist, but its effects on Wnt signaling in endothelial cells have not been elucidated. To determine if SFRP2 mediates canonical Wnt signaling in endothelial cells, cytoplasmic and nuclear β-catenin levels were measured in SFRP2-treated endothelial cells. Mouse endothelial cells were plated in 12-well plates and allowed to attach overnight. The next day, the media was changed and added to the wells with and without SFRP2 (700 pM). Cells were incubated for 16 hours, and the nuclear and cytoplasmic proteins were extracted by using NE-PER™ nuclear and cytoplasmic extraction reagent from PIERCE (Pierce Biotechnology) as described in the manufacturer's manual. Western blot analysis was performed using standard methods, with primary antibody to the dephosphorylated (active) β-catenin antibody (Santa Cruz, Clone BDI480, catalog # sc-59893).\nTo evaluate the role of the non-canonical Wnt/Ca^++ pathway in SFRP2 induced angiogenesis, nuclear dephosphorylated NFATc3 protein levels were compared in control and SFRP2-treated endothelial cells. MEC cells were plated in 12-well plates and allowed to attach overnight. The next day, the media was changed and added to the wells with and without SFRP2 (700 pM). […]"}}, "note": "“Also recorded” adds a separate entry of the source."}
{"molecule": "B1", "values": [{"measurement": "hypoxia induced endothelial cell apoptosis (cleaved caspase 3 activity)", "setting": "[1]", "value": "protected against hypoxia induced endothelial cell apoptosis; also recorded: inhibits hypoxia-induced apoptosis"}, {"measurement": "nuclear (and cytoplasmic) β-catenin level", "setting": "β-catenin", "value": "no change in nuclear β-catenin; also recorded: no change in cytoplasmic or nuclear β-catenin levels"}]}
